{"source": "patent US20210380960", "key": {"[1]": {"biological_target": "T1, Peptide 7 (random peptide)", "T1 chain": "GISEQFKTNVLREYA"}, "[2]": {"biological_target": "T2, Peptide 5: enriched with aromatic residues", "T2 chain": "YFLMNENRYTSWNSE"}, "[3]": {"biological_target": "T3, Peptide 1: enriched in negatively charged residues", "T3 chain": "EEDEKRRKYTSWNSE"}, "[4]": {"biological_target": "T4, Peptide 2: enriched in hydrophobic residues", "T4 chain": "LMLLNENRYTSWNSE"}, "[5]": {"biological_target": "T5, Peptide 4: enriched in glycines", "T5 chain": "GGGGNENRYTSWNSE"}}, "data": [{"protein": "MjTET (protein) MSVVEYLKKLSKLHGISGREDSVREFMKKELEKYCDSVEIDNFGNLIAKRGNKGKKIMIAAHMDEIGLMVKYIDDNGFLKFTKIGGIYDPTILNQKVVVHGSKGDLIGVLGSKPPHRMKEEEKTKIIKYEDMFIDIGAESREEAIEMGVNIGTWVSFLSEVYDLGKNRLTGKAFDDRVGCAVLLEVMKRLSEEDIDCQVYAVGTVQEEVGLKGARVSAFKINPDVAIALDVTIAGDHPGIKKEDAPVDLGKGPVVGIVDASGRGLIAHPKVLDMIKAVSEKYKIDVQWEVGEGGTTDATAIHLTREGIPTGVISVPARYIHTPVEVIDKRDLEKTVELVYNCIKEVNNFF", "values": [{"measurement": "hydrolysis of peptide 7 incorporated into a casein hydrolyzate, RP-HPLC", "setting": "[1]", "result": "the peptide of interest is not very hydrolyzed"}, {"measurement": "kinetics of hydrolysis of the peptide, RP-HPLC after 5, 15 and 30 min", "setting": "[1]", "result": "we observe, in addition to the peptide pep-1, the peptides pep-2 and pep-3, and what corresponds to pep-4 ... between 15 and 30 min, the concentration of the substrate peptide pep-0 does not seem to have decreased"}, {"measurement": "hydrolysis of the peptide, RP-HPLC after 15 min at 40° C.", "setting": "[2]", "result": "all the intermediate peptides are visible as well as the final product pep-4, and there is only a significant slowdown in hydrolysis"}, {"measurement": "hydrolysis of the peptide, RP-HPLC after 15 min at 60° C.", "setting": "[2]", "result": "part of the intact peptide is still present in the reaction medium, while the residues of the hydrolysis products are present in almost equivalent amounts. There is a slight accumulation of the final hydrolysis product, the peptide pep-4"}]}, {"protein": "PhTET1 (protein) MMSMIEKLKKFTQIPGISGYEERIREEIIREIKDFADYKVDAIGNLIVELGEGEERILFMAHMDEIGLLITGITDEGKLRFRKVGGIDDRLLYGRHVNVVTEKGILDGVIGATPPHLSLERDKSVIPWYDLVIDIGAESKEEALELVKPLDFAVFKKHFSVLNGKYVSTRGLDDRFGVVALIEAIKDLVDHELEGKVIFAFTVQEEVGLKGAKFLANHYYPQYAFAIDSFACCSPLTGDVKLGKGPVIRAVDNSAIYSRDLARKVWSIAEKNGIEIQIGVTGGGTDASAFQDRSKTLALSVPIKYLHSEVETLHLNDLEKLVKLIEALAFEL", "values": [{"measurement": "hydrolysis of the peptide, RP-HPLC after 15 min", "setting": "[3]", "result": "no hydrolysis activity is observed"}]}, {"protein": "PhTET2 (protein) MEVRNMVDYELLKKVVEAPGVSGYEFLGIRDVVIEEIKDYVDEVKVDKLGNVIAHKKGEGPKVMIAAHMDQIGLMVTHIEKNGFLRVAPIGGVDPKTLIAQRFKVWIDKGKFIYGVGASVPPHIQKPEDRKKAPDWDQIFIDIGAESKEEAEDMGVKIGTVITWDGRLERLGKHRFVSIAFDDRIAVYTILEVAKQLKDAKADVYFVATVQEEVGLRGARTSAFGIEPDYGFAIDVTIAADIPGTPEHKQVTHLGKGTAIKIMDRSVICHPTIVRWLEELAKKHEIPYQLEILLGGGTDAGAIHLTKAGVPTGALSVPARYIHSNTEVVDERDVDATVELMTKALENIHELKI", "values": [{"measurement": "hydrolysis of the peptide, RP-HPLC after 15 min", "setting": "[4]", "result": "the first residues of the peptide were hydrolyzed more quickly in the presence of PhTET3 than in the presence of PhTET2"}]}, {"protein": "PhTET3 (protein) MDLKGGESMVDWKLMQEIIEAPGVSGYEHLGIRDIVVDVLKEVADEVKVDKLGNVIAHFKGSSPRIMVAAHMDKIGVMVNHIDKDGYLHIVPIGGVLPETLVAQRIRFFTEKGERYGVVGVLPPHLRRGQEDKGSKIDWDQIVVDVGASSKEEAEEMGFRVGTVGEFAPNFTRLNEHRFATPYLDDRICLYAMIEAARQLGDHEADIYIVGSVQEEVGLRGARVASYAINPEVGIAMDVTFAKQPHDKGKIVPELGKGPVMDVGPNINPKLRAFADEVAKKYEIPLQVEPSPRPTGTDANVMQINKEGVATAVLSIPIRYMHSQVELADARDVDNTIKLAKALLEELKPMDFTP", "values": [{"measurement": "hydrolysis of peptide 7 incorporated into a casein hydrolyzate, RP-HPLC", "setting": "[1]", "result": "the peptide of interest is not very hydrolyzed"}, {"measurement": "hydrolysis of the peptide, RP-HPLC after 15 min (PhTET3 alone, 5% experiment)", "setting": "[2]", "result": "there is a strong accumulation of the peptide pep-1 after the 15 minutes of incubation of the aminopeptidase with the substrate peptide"}, {"measurement": "hydrolysis of the peptide, RP-HPLC after 15 min at 40° C.", "setting": "[2]", "result": "a significant decrease in hydrolysis is observed. In fact, in this case, only the peptide pep-1 is visible and in very small quantity"}, {"measurement": "hydrolysis of the peptide, RP-HPLC after 15 min at 60° C.", "setting": "[2]", "result": "there is an accumulation of the peptide pep-1 while the intact substrate peptide is no longer present in the medium"}, {"measurement": "hydrolysis of the peptide, RP-HPLC and mass spectrometry", "setting": "[2]", "result": "significant accumulation of peptides whose tyrosine at the N-terminal end has been hydrolyzed"}]}, {"protein": "PhTET4 (protein) MERIVKILREILEIPSPTGYTKEVMSYLEKFLKENEVNFYYTNKGALIAGNHPKPELVVIAHVDTLGAMVKEILPDGHLAFSRIGGLVLPTFEGEYCTIITRKGKKFRGTLLLRNPSAHVNREVGKKERKEENMYIRLDELVEKREDTEKLGIRPGDFIAFDPKFEYVNGFVKSHFLDDKASVAAILDLIIDMKDELEKYPVAFFFSPYEEVGHGGSAGYPPTTKELLVVDMGVVGEGVSGKETAVSIAAKDTTGPYDYDMTNRLIELAEENNIPYVVDVFPYYGSDGSAALRAGWDFRVALIGPGVHASHGMERTHVKGLLATKELIRAYIKWKG", "values": [{"measurement": "hydrolysis of peptide 7 incorporated into a casein hydrolyzate, RP-HPLC", "setting": "[1]", "result": "only the peptide of interest is hydrolysed by the aminopeptidase PhTET4 and, this, almost completely"}, {"measurement": "kinetics of hydrolysis of the peptide, RP-HPLC after 5, 15 and 30 min", "setting": "[1]", "result": "only the hydrolysis of the first glycine residue was observed"}, {"measurement": "hydrolysis of the peptide, RP-HPLC after 15 min", "setting": "[5]", "result": "no hydrolysis activity is observed"}]}]}
